Results taken from publication PMC11928764.
Where two headings read alike, the source gives them in different places.

Tests used:
[1] = target: eSALO-Y51F (Lutzomyia longipalpis); experiment: SPR; biotinylated eSALO-WT or mutants captured on streptavidin (50-73 RU); single-cycle kinetics, C1r proenzyme 25-400 nM, zC1r-12SP 6.25-100 nM; 25 °C, HBS-T; two-state binding model, apparent KD; mean ± SD of three injections
[2] = target: eSALO-WT (SALO, salivary anticomplement from Lutzomyia longipalpis, expressed by HEK293(T) cells) (Lutzomyia longipalpis) (UniProt Q5WPZ4); experiment: as above
[3] = target: eSALO-E58A (Lutzomyia longipalpis); experiment: as above
[4] = target: eSALO-WT (SALO, salivary anticomplement from Lutzomyia longipalpis, expressed by HEK293(T) cells) (Lutzomyia longipalpis) (UniProt Q5WPZ4); experiment: SPR; biotinylated eSALO-WT captured on streptavidin (97 RU); single-cycle kinetics, C1r proenzyme 25-400 nM, zC1r-12SP 6.25-100 nM; 25 °C, HBS-T; two-state kinetic model, apparent KD
[5] = target: eSALO-WT (SALO, salivary anticomplement from Lutzomyia longipalpis, expressed by HEK293(T) cells) (Lutzomyia longipalpis) (UniProt Q5WPZ4); experiment: SPR; eSALO-WT amine-coupled to a CMD200M chip (720 RU); analytes injected as two-fold series (15.6-1000 nM; 1.56-100 nM for C1 and C1r proenzyme); 25 °C, HBS-T (20 mM Hepes pH 7.4, 140 mM NaCl, 0.005% Tween-20); 1:1 model, apparent KD
[6] = target: T1, C1r proenzyme (zymogen of complement protease C1r) (human)
T1 sequence (P00736 18-705, looked up): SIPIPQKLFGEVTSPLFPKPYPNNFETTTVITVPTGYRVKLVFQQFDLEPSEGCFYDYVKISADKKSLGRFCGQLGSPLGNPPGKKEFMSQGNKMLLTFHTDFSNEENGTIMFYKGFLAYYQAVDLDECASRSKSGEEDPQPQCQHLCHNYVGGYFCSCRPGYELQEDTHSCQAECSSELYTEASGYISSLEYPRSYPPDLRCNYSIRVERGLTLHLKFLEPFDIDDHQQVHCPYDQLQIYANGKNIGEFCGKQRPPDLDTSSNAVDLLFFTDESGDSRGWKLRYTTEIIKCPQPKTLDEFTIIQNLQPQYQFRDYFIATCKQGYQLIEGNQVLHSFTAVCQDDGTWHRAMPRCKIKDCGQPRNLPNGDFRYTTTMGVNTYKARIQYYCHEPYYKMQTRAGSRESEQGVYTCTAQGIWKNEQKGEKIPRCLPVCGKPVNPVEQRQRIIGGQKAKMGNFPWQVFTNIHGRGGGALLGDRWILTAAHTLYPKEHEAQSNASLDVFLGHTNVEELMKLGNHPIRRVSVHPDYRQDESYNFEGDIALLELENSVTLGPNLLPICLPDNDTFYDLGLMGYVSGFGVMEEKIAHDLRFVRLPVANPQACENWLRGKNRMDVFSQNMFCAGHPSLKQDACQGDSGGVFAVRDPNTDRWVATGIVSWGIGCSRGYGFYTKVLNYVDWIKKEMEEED

[7] = target: T1, C1r proenzyme (zymogen of complement protease C1r) (human); remark: listed apart in the source

**Q.** How did the Ka-1 (two-state model, first step, association) [1] turn out when “zC1r-12SP (fragment of human C1r with its two CCP repeats and serine protease domain, S654A, zymogen-like) (domain or fragment)” was run?
**A.** 280000 M⁻¹ s⁻¹

**Q.** And the Ka-2 (two-state model, second step, forward) [1]?
**A.** 0.0017 s⁻¹

**Q.** What about the Kd [1] of the same molecule?
**A.** 9 nM

**Q.** And the Kd-1 (two-state model, first step, dissociation) [1]?
**A.** 0.008 s⁻¹

**Q.** And the Kd-2 (two-state model, second step, reverse) [1]?
**A.** 0.00077 s⁻¹

**Q.** What about the Ka-1 (two-state model, first step, association) [2] of the same molecule?
**A.** 370000 M⁻¹ s⁻¹

**Q.** What about the Ka-2 (two-state model, second step, forward) [2] of the same molecule?
**A.** 0.0024 s⁻¹

**Q.** And the Kd [2]?
**A.** 1.1 nM

**Q.** What about the Kd-1 (two-state model, first step, dissociation) [2] of the same molecule?
**A.** 0.0038 s⁻¹

**Q.** And the Kd-2 (two-state model, second step, reverse) [2]?
**A.** 0.00028 s⁻¹

**Q.** What about the Ka-1 (two-state model, first step, association) [3] of the same molecule?
**A.** 260000 M⁻¹ s⁻¹

**Q.** What about the Ka-2 (two-state model, second step, forward) [3] of the same molecule?
**A.** 0.0018 s⁻¹

**Q.** What about the Kd [3] of the same molecule?
**A.** 2.5 nM

**Q.** What about the Kd-1 (two-state model, first step, dissociation) [3] of the same molecule?
**A.** 0.0034 s⁻¹

**Q.** What about the Kd-2 (two-state model, second step, reverse) [3] of the same molecule?
**A.** 0.00041 s⁻¹

**Q.** And the Kd [4]?
**A.** 0.7 nM

**Q.** How did the Kd [5] turn out when “C1r proenzyme (zymogen of complement protease C1r)” was run?
**A.** 8.5 nM

**Q.** And the Ka-1 (two-state model, first step, association) [1]?
**A.** 370000 M⁻¹ s⁻¹

**Q.** What about the Ka-2 (two-state model, second step, forward) [1] of the same molecule?
**A.** 0.0008 s⁻¹

**Q.** What about the Kd [1] of the same molecule?
**A.** 41.9 nM

**Q.** What about the Kd-1 (two-state model, first step, dissociation) [1] of the same molecule?
**A.** 0.0183 s⁻¹

**Q.** And the Kd-2 (two-state model, second step, reverse) [1]?
**A.** 0.00069 s⁻¹

**Q.** And the Ka-1 (two-state model, first step, association) [2]?
**A.** 30000 M⁻¹ s⁻¹

**Q.** And the Ka-2 (two-state model, second step, forward) [2]?
**A.** 0.003 s⁻¹

**Q.** And the Kd [2]?
**A.** 5.6 nM

**Q.** And the Kd-1 (two-state model, first step, dissociation) [2]?
**A.** 0.0022 s⁻¹

**Q.** What about the Kd-2 (two-state model, second step, reverse) [2] of the same molecule?
**A.** 0.00027 s⁻¹

**Q.** What about the Ka-1 (two-state model, first step, association) [3] of the same molecule?
**A.** 50000 M⁻¹ s⁻¹

**Q.** What about the Ka-2 (two-state model, second step, forward) [3] of the same molecule?
**A.** 0.0023 s⁻¹

**Q.** And the Kd [3]?
**A.** 10.3 nM

**Q.** And the Kd-1 (two-state model, first step, dissociation) [3]?
**A.** 0.0027 s⁻¹

**Q.** And the Kd-2 (two-state model, second step, reverse) [3]?
**A.** 0.00037 s⁻¹

**Q.** What about the Kd [4] of the same molecule?
**A.** 11.1 nM

**Q.** Which IC50 of inhibition of classical-pathway hemolysis (antibody-sensitized sheep erythrocytes, 0.5% NHS) [6] does the source give for eSALO-E58A (natural protein) here?
**A.** 1200 nM

**Q.** eSALO-Y51F (natural protein) was tested. Which IC50 of inhibition of classical-pathway hemolysis (antibody-sensitized sheep erythrocytes, 0.5% NHS) [6] did it give?
**A.** 14500 nM

**Q.** With “Native C1 complex (first component of complement) (from UniProt P02745 23-245; P02746 28-253; P02747 29-245)” as the molecule, how does the Kd [5] read?
**A.** 0.8 nM

B1: eSALO-WT (SALO, salivary anticomplement from Lutzomyia longipalpis, expressed by HEK293(T) cells) (natural protein)
chain: SEDCENIFHDNAYLLKLDCEAGRVDPVEYDDISDEEIYEITVDVGVSSEDQEKVAKIIRECIAQVSTQDCTKFSEIYDCYMKKKICNYYPENM
modifications: sulfotyrosine at Y51 (X51; extent of sulfation not known); biotin (NHS-PEG4-biotin) where surface-captured in SPR
**Q.** For B1, which IC50 of inhibition of classical-pathway hemolysis (antibody-sensitized sheep erythrocytes, 0.5% NHS) [6] is on record?
**A.** 84.9 nM

B2: rSALO-WT (SALO expressed in Escherichia coli and refolded) (natural protein)
chain: SEDCENIFHDNAYLLKLDCEAGRVDPVEYDDISDEEIYEITVDVGVSSEDQEKVAKIIRECIAQVSTQDCTKFSEIYDCYMKKKICNYYPENM
**Q.** With B2 as the molecule, how does the IC50 of inhibition of classical-pathway hemolysis (antibody-sensitized sheep erythrocytes, 0.5% NHS) [7] read?
**A.** 16 µM
